In PMC10397247:
Read-outs that look alike come from different tables or passages of the source.

How the values were obtained:
[1] = molecular target: T1, 4H3587-AA; experiment: two-hybrid library CCmax; details: mean of both orientations;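 further: natural log of median RNA to DNA barcode read ratio; higher means stronger binding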
T1 chain: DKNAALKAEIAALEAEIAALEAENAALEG

[2] = molecular target: 4H_GCN4; experiment: two-hybrid library CCmax;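 further: natural log of median RNA to DNA barcode read ratio; higher means stronger binding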
[3] = molecular target: T2, 4H451-AA; experiment: two-hybrid library CCmax; details: mean of both orientations;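 further: natural log of median RNA to DNA barcode read ratio; higher means stronger binding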
T2 chain: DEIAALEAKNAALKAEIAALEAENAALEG

[4] = molecular target: T3, 4H3625-AA; experiment: two-hybrid library CCmax; details: mean of both orientations;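 further: natural log of median RNA to DNA barcode read ratio; higher means stronger binding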
T3 chain: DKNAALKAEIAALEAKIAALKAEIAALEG

[5] = molecular target: T4, 4H1392-AA; experiment: two-hybrid library CCmax
T4 chain: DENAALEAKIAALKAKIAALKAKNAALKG

[6] = molecular target: T5, 4H337-AA; experiment: two-hybrid library CCmax; details: mean of both orientations
T5 chain: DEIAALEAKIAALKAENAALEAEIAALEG

[7] = molecular target: T6, 4H_APH; experiment: two-hybrid library CCmax; details: mean of both orientations
T6 chain: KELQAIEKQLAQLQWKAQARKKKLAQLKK

[8] = molecular target: T7, O13-AA; experiment: two-hybrid library CCmax; details: mean of both orientations
T7 chain: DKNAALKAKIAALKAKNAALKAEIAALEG

[9] = molecular target: T8, 4H2736-AA; experiment: two-hybrid library CCmax; details: mean of both orientations
T8 chain: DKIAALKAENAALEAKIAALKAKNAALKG

[10] = molecular target: T9, 4H3905-AA; experiment: two-hybrid library CCmax; details: mean of both orientations
T9 chain: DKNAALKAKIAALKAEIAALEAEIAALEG

[11] = molecular target: T10, 4H2888-AA; experiment: two-hybrid library CCmax; details: mean of both orientations
T10 chain: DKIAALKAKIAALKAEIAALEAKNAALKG

[12] = molecular target: T11, 4H2622-AA; experiment: two-hybrid library CCmax; details: mean of both orientations
T11 chain: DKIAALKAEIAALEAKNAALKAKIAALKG

[13] = molecular target: T12, 4H510-AA; experiment: two-hybrid library CCmax; details: mean of both orientations
T12 chain: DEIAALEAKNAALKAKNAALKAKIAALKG

[14] = molecular target: T13, 4H3049-AA; experiment: two-hybrid library CCmax; details: mean of both orientations
T13 chain: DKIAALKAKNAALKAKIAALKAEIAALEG

[15] = molecular target: T14, 4H4038-AA; experiment: two-hybrid library CCmax; details: mean of both orientations
T14 chain: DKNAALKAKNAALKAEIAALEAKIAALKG

[16] = molecular target: T15, 4H_BCR; experiment: two-hybrid library CCmax; details: mean of both orientations
T15 chain: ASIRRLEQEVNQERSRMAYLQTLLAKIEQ

[17] = molecular target: GCN2_T; experiment: two-hybrid library CCmax
[18] = molecular target: T16, 4H2705-AA; experiment: two-hybrid library CCmax; details: mean of both orientations
T16 chain: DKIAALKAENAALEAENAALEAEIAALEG

[19] = molecular target: T17, 4H3590-AA; experiment: two-hybrid library CCmax; details: mean of both orientations
T17 chain: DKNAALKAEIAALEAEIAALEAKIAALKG

[20] = molecular target: T18, 4H384-AA; experiment: two-hybrid library CCmax; details: mean of both orientations
T18 chain: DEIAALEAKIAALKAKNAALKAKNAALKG

[21] = molecular target: T19, O11-AA; experiment: two-hybrid library CCmax; details: mean of both orientations
T19 chain: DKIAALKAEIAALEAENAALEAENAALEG

[22] = molecular target: T20, O14-AA; experiment: two-hybrid library CCmax; details: mean of both orientations
T20 chain: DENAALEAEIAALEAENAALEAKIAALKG

[23] = molecular target: T21, 4H3129-AA; experiment: two-hybrid library CCmax
T21 chain: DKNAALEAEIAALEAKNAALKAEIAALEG

[24] = molecular target: T22, 4H43-AA; experiment: two-hybrid library CCmax; details: mean of both orientations
T22 chain: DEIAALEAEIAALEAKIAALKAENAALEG

[25] = molecular target: T23, O4; experiment: two-hybrid library CCNG1
T23 chain: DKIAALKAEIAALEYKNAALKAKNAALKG

[26] = molecular target: T24, O9; experiment: two-hybrid library CCNG1
T24 chain: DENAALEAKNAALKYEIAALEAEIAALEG

[27] = molecular target: T25, O3; experiment: two-hybrid library CCNG1
T25 chain: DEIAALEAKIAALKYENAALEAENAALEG

[28] = molecular target: T26, O8; experiment: two-hybrid library CCNG1
T26 chain: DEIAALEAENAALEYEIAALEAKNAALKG

[29] = molecular target: T27, O5; experiment: two-hybrid library CCNG1
T27 chain: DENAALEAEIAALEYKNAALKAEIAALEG

[30] = molecular target: T28, O16; experiment: two-hybrid library CCNG1
T28 chain: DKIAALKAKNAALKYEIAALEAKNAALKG

[31] = molecular target: T29, O14; experiment: two-hybrid library CCNG1
T29 chain: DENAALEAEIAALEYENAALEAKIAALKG

[32] = molecular target: T30, O15; experiment: two-hybrid library CCNG1
T30 chain: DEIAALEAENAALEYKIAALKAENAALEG

[33] = molecular target: T31, O13; experiment: two-hybrid library CCNG1
T31 chain: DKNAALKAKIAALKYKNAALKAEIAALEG

[34] = molecular target: T32, O7; experiment: two-hybrid library CCNG1
T32 chain: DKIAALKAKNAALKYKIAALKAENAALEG

[35] = molecular target: T33, O2; experiment: two-hybrid library CCNG1
T33 chain: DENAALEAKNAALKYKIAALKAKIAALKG

[36] = molecular target: T34, O6; experiment: two-hybrid library CCNG1
T34 chain: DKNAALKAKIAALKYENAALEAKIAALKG

[37] = molecular target: T35, 4H4038-bN; experiment: two-hybrid library CCNG1
T35 chain: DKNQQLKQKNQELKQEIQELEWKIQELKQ

[38] = molecular target: T36, 4H3907-bN; experiment: two-hybrid library CCNG1
T36 chain: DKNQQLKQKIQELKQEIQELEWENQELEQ

[39] = molecular target: T37, 4H3601-bN; experiment: two-hybrid library CCNG1
T37 chain: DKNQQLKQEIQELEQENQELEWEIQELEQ

[40] = molecular target: T38, 4H342-bA; experiment: two-hybrid library CCNG1
T38 chain: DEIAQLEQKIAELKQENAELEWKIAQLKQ

[41] = molecular target: T39, 4H496-bA; experiment: two-hybrid library CCNG1
T39 chain: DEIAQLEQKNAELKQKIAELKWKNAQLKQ

[42] = molecular target: T40, 4H3070-bA; experiment: two-hybrid library CCNG1
T40 chain: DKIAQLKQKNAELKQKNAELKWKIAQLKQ

[43] = molecular target: T41, 4H3632-bA; experiment: two-hybrid library CCNG1
T41 chain: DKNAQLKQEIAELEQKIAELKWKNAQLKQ

[44] = molecular target: T42, 4H883-bA; experiment: two-hybrid library CCNG1
T42 chain: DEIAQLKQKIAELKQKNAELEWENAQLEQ

[45] = molecular target: T43, 4H3961-bN; experiment: two-hybrid library CCNG1
T43 chain: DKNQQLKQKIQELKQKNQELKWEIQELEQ

[46] = molecular target: T44, 4H363-bN; experiment: two-hybrid library CCNG1
T44 chain: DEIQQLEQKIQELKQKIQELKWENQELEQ

[47] = molecular target: T45, 4H344-bN; experiment: two-hybrid library CCNG1
T45 chain: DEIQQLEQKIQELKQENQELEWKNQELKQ

[48] = molecular target: T46, 4H470-bN; experiment: two-hybrid library CCNG1
T46 chain: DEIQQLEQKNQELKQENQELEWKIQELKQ

[49] = molecular target: T47, 4H1544-bH; experiment: two-hybrid library CCNG1
T47 chain: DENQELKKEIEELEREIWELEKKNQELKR

[50] = molecular target: T48, 4H1985-bH; experiment: two-hybrid library CCNG1
T48 chain: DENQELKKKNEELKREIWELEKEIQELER

[51] = molecular target: T49, 4H3628-bH; experiment: two-hybrid library CCNG1
T49 chain: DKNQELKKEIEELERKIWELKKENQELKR

[52] = molecular target: T50, 4H906-bH; experiment: two-hybrid library CCNG1
T50 chain: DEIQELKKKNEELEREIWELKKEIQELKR

[53] = molecular target: T51, 4H3298-bH; experiment: two-hybrid library CCNG1
T51 chain: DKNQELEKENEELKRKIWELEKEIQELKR

[54] = molecular target: T52, 4H3926-bH; experiment: two-hybrid library CCNG1
T52 chain: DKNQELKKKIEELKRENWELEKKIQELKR

[55] = molecular target: T53, 4H3462-bH; experiment: two-hybrid library CCNG1
T53 chain: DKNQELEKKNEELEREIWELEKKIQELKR

[56] = molecular target: T54, 4H3497-bH; experiment: two-hybrid library CCNG1
T54 chain: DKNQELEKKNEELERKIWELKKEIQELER

[57] = molecular target: T55, 4H3974-bH; experiment: two-hybrid library CCNG1
T55 chain: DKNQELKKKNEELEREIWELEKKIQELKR

[58] = molecular target: T56, 4H570-bH; experiment: two-hybrid library CCNG1
T56 chain: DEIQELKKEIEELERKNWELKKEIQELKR

[59] = molecular target: T57, 4H591-bH; experiment: two-hybrid library CCNG1
T57 chain: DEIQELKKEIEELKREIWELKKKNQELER

[60] = molecular target: T58, 4H3613-bH; experiment: two-hybrid library CCNG1
T58 chain: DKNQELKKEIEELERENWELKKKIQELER

[61] = molecular target: T59, 4H3858-bH; experiment: two-hybrid library CCNG1
T59 chain: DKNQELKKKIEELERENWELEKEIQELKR

[62] = molecular target: T60, 4H3175-bH; experiment: two-hybrid library CCNG1
T60 chain: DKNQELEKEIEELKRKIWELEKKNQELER

[63] = molecular target: T61, 4H3817-bH; experiment: two-hybrid library CCNG1
T61 chain: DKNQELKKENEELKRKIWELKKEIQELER

[64] = molecular target: T62, 4H626-bH; experiment: two-hybrid library CCNG1
T62 chain: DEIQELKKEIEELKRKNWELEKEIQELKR

[65] = molecular target: T63, 4H1710-bH; experiment: two-hybrid library CCNG1
T63 chain: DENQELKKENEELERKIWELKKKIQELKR

[66] = molecular target: T64, 4H1899-bH; experiment: two-hybrid library CCNG1
T64 chain: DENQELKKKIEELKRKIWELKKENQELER

[67] = molecular target: T65, 4H3162-bH; experiment: two-hybrid library CCNG1
T65 chain: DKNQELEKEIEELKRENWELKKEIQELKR

[68] = molecular target: T66, 4H850-bH; experiment: two-hybrid library CCNG1
T66 chain: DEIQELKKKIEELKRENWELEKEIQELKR

[69] = molecular target: T67, 4H3277-bH; experiment: two-hybrid library CCNG1
T67 chain: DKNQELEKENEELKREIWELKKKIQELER

Chain of 4H_GCN4 (chain, as listed by the source): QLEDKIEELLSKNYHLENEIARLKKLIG

DENAALEAKIAALKAKIAALKAKNAALKG [4H1392-AA]
interaction score [1]: 2.24 | interaction score [2]: -1.48 | interaction score [3]: -0.924 | interaction score [4]: -0.223 | interaction score [5]: -0.666 | interaction score [6]: -0.783 | interaction score [7]: -1.59 | interaction score [8]: -1.99 | interaction score [9]: -1.42 | interaction score [10]: 0.91 | interaction score [11]: -0.448 | interaction score [12]: -1.4 | interaction score [13]: -1.62 | interaction score [14]: -0.0185 | interaction score [15]: 0.56 | interaction score [16]: -2.2 | interaction score [17]: -1.63 | interaction score [18]: -1.59 | interaction score [19]: 1.89 | interaction score [20]: -1.28 | interaction score [21]: 1.25 | interaction score [22]: 0.474 | interaction score [23]: -1.07 | interaction score [24]: 1.25

DKNAALKAKIAALKYKNAALKAEIAALEG [O13]
interaction score [25]: -2.24 | interaction score [26]: -2.39 | interaction score [27]: -2.26 | interaction score [28]: -1.26 | interaction score [29]: -1.38 | interaction score [30]: -2.61 | interaction score [31]: 1.68 | interaction score [32]: 1.46 | interaction score [33]: -2.48 | interaction score [34]: -2.53 | interaction score [35]: -2.42 | interaction score [36]: -1.32

DKNQQLKQEIQELEQENQELEWEIQELEQ [4H3601-bN]
interaction score [37]: -1.28 | interaction score [38]: -1.37 | interaction score [39]: -1.57

DKIAQLKQKNAELKQKNAELKWKIAQLKQ [4H3070-bA]
interaction score [40]: 1.46 | interaction score [41]: -1.47 | interaction score ([42]; mean of both orientations): -0.355 | interaction score [43]: -1.37 | interaction score [44]: 0.052

DEIQQLEQKIQELKQENQELEWKNQELKQ [4H344-bN]
interaction score [45]: 0.044 | interaction score [38]: -2.07 | interaction score [46]: -2.06 | interaction score [47]: 0.297 | interaction score [48]: 0.132

DENQELKKEIEELEREIWELEKKNQELKR [4H1544-bH]
interaction score [49]: 0.599 | interaction score [50]: 0.533 | interaction score [51]: -0.0215 | interaction score [52]: 0.0592 | interaction score [53]: 0.51 | interaction score [54]: 0.243 | interaction score [55]: 0.608 | interaction score [56]: 0.211 | interaction score [57]: 0.61 | interaction score [58]: 0.232 | interaction score [59]: 1.2 | interaction score [60]: 0.423 | interaction score [61]: 0.651 | interaction score [62]: -0.419 | interaction score [63]: 0.913 | interaction score [64]: -0.838 | interaction score [65]: 0.154 | interaction score [66]: 1.61 | interaction score [42]: 0.826 | interaction score [67]: 0.879 | interaction score [68]: 1.29 | interaction score [69]: 0.893
